Test results from the supplement of paper PMC10567573.

B1: C9orf9 (parent)
chain: TKHKCRQLTKASLKPRGCSKPPWR
B2: PTPRD (parent)
chain: PVVSMDLDPQPITDEEEGLIWVVG

Variants of: B1
Test: protein stability index of a GFP-peptide fusion (GPS, HEK-293T) (PSI 1-6); higher = more stable
Details: c terminus: a fixed tail appended
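Also: lentivirally expressed fusions sorted by FACS into six bins by GFP to DsRed ratio, PSI derived from sequencing read proportions per bin multiplied by bin number.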

| Variant | protein stability index |
| --- | --- |
| TKHKCMQLTKASLKPRGCSKPPWR | 2.19 |
| TKHKCRPLTKASLKPRGCSKPPWR | 3.14 |
| TKSKCRQLTKASLKPRGCSKPPWR | 3.02 |
| TKHKCRQLKKASLKPRGCSKPPWR | 3.57 |
| TKHKCRQLTKASLKPRGCSKPWWR | 1.89 |
| TKHKCRQLTKASLKPRGCSKPCWR | 1.83 |
| TKHKCRQLTKASLKPRGCSKPMWR | 2.76 |
| TKHKCRQLTKASLKPRGCSPPPWR | 3.42 |
| TKHKCRQLTKASLIPRGCSKPPWR | 2.2 |
| TKHKCRQLTKASLKKRGCSKPPWR | 3.52 |
| TKHKCRQLTKYSLKPRGCSKPPWR | 2.48 |
| TKHKCRQLTKASLKPRGASKPPWR | 2.71 |
| TKHKCRQLTKASLKPRGSSKPPWR | 1.35 |
| TKHKCRQLTKASLKPRGTSKPPWR | 3.11 |
| TKHKCRQLTKASLKPRGCSKPPMR | 3.05 |
| TKHKCRQLTKASLKPRGCSKPPWD | 3.17 |

Variants of: B2
Test: as above
Details: c terminus: a fixed tail appended

| Variant | protein stability index |
| --- | --- |
| PVVSMDLDPQPITDEEEGTIWVVG | 4.91 |
| PVVSMDLDPQPITDEEEGWIWVVG | 3.37 |
| PVVSMDLDPQPITDEEEGNIWVVG | 4.57 |
| PVVSMDLDPQPITDEEEGVIWVVG | 3.56 |
| PVVSMDLDPQPITDEEEGEIWVVG | 4.54 |
| PVVSMDLDPQPITDEEEGQIWVVG | 3.66 |
| PVVSMDLDPQPITDEEEGSIWVVG | 4.21 |
| PVVSMDLDPQPITDEEEGFIWVVG | 3.65 |
| PVVSMDLDPQPITDEEEGAIWVVG | 4.6 |
| PVVSMDLDPQPITDEHEGLIWVVG | 3.2 |
| PVVSMDLDPQPITDEQEGLIWVVG | 3.79 |
| PVVSMDLDPQPITDEVEGLIWVVG | 1.5 |
| PVVSMDLDPQPITDESEGLIWVVG | 3.36 |
| PVVSMDLDPQPITDEFEGLIWVVG | 1.07 |
| PVVSMDLDPQPITDEWEGLIWVVG | 2.27 |
| PVVSMDLDPQPITDEDEGLIWVVG | 4.08 |
| PVVSMDLDPQPITDEYEGLIWVVG | 2.79 |
| PVVSMDLDPQPITDETEGLIWVVG | 2.87 |
| PVVSMDLDPQPITDEAEGLIWVVG | 3.22 |
| PVVSMDLDPQPITDECEGLIWVVG | 1.94 |
| PVVSMDLDPQPITDEPEGLIWVVG | 2.79 |
| PVVSMDLDPQPITDEEEGLIWVVC | 1.85 |
| PVVSMDLDPQPITDEEEGLIWVVI | 1.54 |
| PVVSMDLDPQPITDEEEGLIWVVN | 4.15 |
| PVVSMDLDPQPITDEEEGLIWVVE | 3.77 |

| Variant | protein stability index |
| --- | --- |
| PVVSMDLDPQPITDEEEGLIWVVS | 3.36 |
| PVVSMDLDPQPITDEEEGLIWVVW | 1.41 |
| PVVSMDLDPQPITDEEEGLIWVVM | 2.87 |
| PVVSMDLDPQPITDEEEGLIWVVY | 3.09 |
| PVVSMDLDPQPITDEEEGLIWVVQ | 3.55 |
| PVVSMDLDPQPITDEEEGLIWVVD | 4.45 |
| PVVSMDLDPQPITDEEEGLIWVVH | 3.87 |
| PVVSMDLDPQPITDEEEGLIWVVV | 1.7 |
| PVVSMDLDPQPITDEEEGLIWVVL | 1.51 |
| PVVSMDLDPQPITDEEEGLIWVVF | 1.34 |
| PVVSMDLDPQPITDEEEGLIWVVT | 3.21 |
| PVVSMDLDPQPITDEEEGLIWVVK | 4.06 |
| PVVSMDLDPQPITDEEEGLIIVVG | 3.62 |
| PVVSMDLDPQPITDEEEGLIFVVG | 4.08 |
| PVVSMDLDPQPITDEEEGLILVVG | 3.33 |
| PVVSMDLDPQPITDEEEGLIQVVG | 5.18 |
| PVVSMDLDPQPITDEEEGLICVVG | 4.69 |
| PVVSMDLDPQPITDEEEGLIAVVG | 6 |
| PVVSMDLDPQPITDEEEGLISVVG | 5.43 |
| PVVSMDLDPQPITDEEEGLIVVVG | 4.27 |
| PVVSMDLDPQPITDEEEGLIYVVG | 4.1 |
| PVVSMDLDPQPITDEEEGLITVVG | 4.69 |
| PVVSMDLDPQPITDEEEGLIDVVG | 5.06 |
| PVVSMDLDPQPITDEEEGLIHVVG | 5.47 |
| PVVSMDLDPQPITDEEEGLPWVVG | 5.16 |

| Variant | protein stability index |
| --- | --- |
| PVVSMDLDPQPITDEEEGLGWVVG | 4.92 |
| PVVSMDLDPQPITDEEEGLHWVVG | 4.32 |
| PVVSMDLDPQPITDEEEGLNWVVG | 4.31 |
| PVVSMDLDPQPITDEEEGLSWVVG | 4.64 |
| PVVSMDLDPQPITDEEEGLEWVVG | 5.35 |
| PVVSMDLDPQPITDEEEGLDWVVG | 4.8 |
| PVVSMDLDPQPITDEEEGLQWVVG | 4.95 |
| PVVSMDLDPQPITDEEEGLVWVVG | 4.87 |
| PVVSMDLDPQPITDEEEGLKWVVG | 4.64 |
| PVVSMDLDPQPITDEEEGLLWVVG | 2.99 |
| PVVSMDLDPQPIPDEEEGLIWVVG | 3.36 |
| PVVSMDLDPQPISDEEEGLIWVVG | 3.13 |
| PVVSMDLDPQPILDEEEGLIWVVG | 3.07 |
| PVVSMDLDPQPIWDEEEGLIWVVG | 2.47 |
| PVVSMDLDPQPIIDEEEGLIWVVG | 2.71 |
| PVVSMDLDPQPIVDEEEGLIWVVG | 3.58 |
| PVVSMDLDPQPINDEEEGLIWVVG | 3.87 |
| PVVSMDLDPQPIADEEEGLIWVVG | 3.87 |
| PVVSMDLDPQPIYDEEEGLIWVVG | 2.9 |
| PVVSMDLDPQPICDEEEGLIWVVG | 3.84 |
| PVVSMDLDPQPIDDEEEGLIWVVG | 4.13 |
| PVVSMDLDPQPITDEEAGLIWVVG | 2.26 |
| PVVSMDLDPQPITDEEKGLIWVVG | 3.12 |
| PVVSMDLDPQPITDEEQGLIWVVG | 4.18 |
| PVVSMDLDPQPITDEEIGLIWVVG | 1.8 |

| Variant | protein stability index |
| --- | --- |
| PVVSMDLDPQPITDEEDGLIWVVG | 4.26 |
| PVVSMDLDPQPITDEECGLIWVVG | 2.25 |
| PVVSMDLDPQPITDEEGGLIWVVG | 3.34 |
| PVVSMDLDPQPITDEEPGLIWVVG | 2.38 |
| PVVSMDLDPQPITDEERGLIWVVG | 2.75 |
| PVVSMDLDPQPITDEEVGLIWVVG | 1.75 |
| PVVSMDLDPQPITDEEYGLIWVVG | 1.38 |
| PVVSMDLDPQPITDEELGLIWVVG | 2.56 |
| PVVSMDLDPQPITDEEMGLIWVVG | 1.69 |
| PVVSMDLDPQPITDEENGLIWVVG | 3.37 |
| PVVSMDLDPQPITDEESGLIWVVG | 2.88 |
| PVVSMDLDPQPITDEETGLIWVVG | 3.31 |
| PVVSMDLDPQPITDEEECLIWVVG | 2.63 |
| PVVSMDLDPQPITDEEEMLIWVVG | 2 |
| PVVSMDLDPQPITDEEELLIWVVG | 3.16 |
| PVVSMDLDPQPITDEEERLIWVVG | 3.28 |
| PVVSMDLDPQPITDEEESLIWVVG | 3.98 |
| PVVSMDLDPQPITDEEEQLIWVVG | 3.37 |
| PVVSMDLDPQPITDEEEHLIWVVG | 3.52 |
| PVVSMDLDPQPITDEEEDLIWVVG | 4.59 |
| PVVSMDLDPQPITDEEEKLIWVVG | 3.72 |
| PVVSMDLDPQPITDEEEELIWVVG | 4.22 |
| PVVSMDLDPQPITDEEENLIWVVG | 4.42 |
| PVVSMDLDPQPITDEEEPLIWVVG | 3.19 |
| PVVSMDLDPQPITDEEEYLIWVVG | 2.27 |

| Variant | protein stability index |
| --- | --- |
| PVVSMDLDPQPITDEEEGLIWVDG | 5.36 |
| PVVSMDLDPQPITDEEEGLIWVCG | 3.9 |
| PVVSMDLDPQPITDEEEGLIWVSG | 5.01 |
| PVVSMDLDPQPITDEEEGLIWVPG | 4.97 |
| PVVSMDLDPQPITDEEEGLIWVHG | 4.93 |
| PVVSMDLDPQPITDEEEGLIWVGG | 5.27 |
| PVVSMDLDPQPITDEEEGLIWVMG | 4.55 |
| PVVSMDLDPQPITDEEEGLIWVYG | 4.4 |
| PVVSMDLDPQPITDEEEGLIWVAG | 4.67 |
| PVVSMDLDPQPITDEEEGLIWVTG | 4.93 |
| PVVSMDLDPQPITDEEEGLIWVNG | 4.45 |
| PVVSMDLDPQPITDEEEGLIWVRG | 5.03 |
| PVVSMDLDPQPITDEEEGLIWVLG | 3.06 |
| PVVSMDLDPQPITNEEEGLIWVVG | 3.9 |
| PVVSMDLDPQPITGEEEGLIWVVG | 3.87 |
| PVVSMDLDPQPITFEEEGLIWVVG | 2.14 |
| PVVSMDLDPQPITMEEEGLIWVVG | 2.36 |
| PVVSMDLDPQPITSEEEGLIWVVG | 4.05 |
| PVVSMDLDPQPITREEEGLIWVVG | 2.31 |
| PVVSMDLDPQPITIEEEGLIWVVG | 4.15 |
| PVVSMDLDPQPITLEEEGLIWVVG | 2.06 |
| PVVSMDLDPQPITAEEEGLIWVVG | 2.58 |
| PVVSMDLDPQPITCEEEGLIWVVG | 2.9 |
| PVVSMDLDPQPITYEEEGLIWVVG | 2.27 |
| PVVSMDLDPQPITEEEEGLIWVVG | 3.78 |

| Variant | protein stability index |
| --- | --- |
| PVVSMDLDPQPSTDEEEGLIWVVG | 3.64 |
| PVVSMDLDPQPFTDEEEGLIWVVG | 2.78 |
| PVVSMDLDPQPDTDEEEGLIWVVG | 4.52 |
| PVVSMDLDPQPETDEEEGLIWVVG | 4.94 |
| PVVSMDLDPQPLTDEEEGLIWVVG | 3.95 |
| PVVSMDLDPQPGTDEEEGLIWVVG | 4.49 |
| PVVSMDLDPQPMTDEEEGLIWVVG | 3.75 |
| PVVSMDLDPQPRTDEEEGLIWVVG | 4.74 |
| PVVSMDLDPQPKTDEEEGLIWVVG | 4.84 |
| PVVSMDLDPQPNTDEEEGLIWVVG | 4.28 |
| PVVSMDLDPQPYTDEEEGLIWVVG | 2.86 |
| PVVSMDLDPQPCTDEEEGLIWVVG | 3.66 |
| PVVSMDLDPQPVTDEEEGLIWVVG | 4.28 |
| PVVSMDLDPQPHTDEEEGLIWVVG | 4.07 |
| PVVSMDLDPQPITDQEEGLIWVVG | 3.77 |
| PVVSMDLDPQPITDGEEGLIWVVG | 3.21 |
| PVVSMDLDPQPITDDEEGLIWVVG | 2.31 |
| PVVSMDLDPQPITDSEEGLIWVVG | 2.9 |
| PVVSMDLDPQPITDNEEGLIWVVG | 3.67 |
| PVVSMDLDPQPITDWEEGLIWVVG | 1.61 |
| PVVSMDLDPQPITDCEEGLIWVVG | 3.25 |
| PVVSMDLDPQPITDKEEGLIWVVG | 3.16 |
| PVVSMDLDPQPITDPEEGLIWVVG | 3.19 |
| PVVSMDLDPQPITDREEGLIWVVG | 3.57 |
| PVVSMDLDPQPITDTEEGLIWVVG | 2.33 |

| Variant | protein stability index |
| --- | --- |
| PVVSMDLDPQNITDEEEGLIWVVG | 3.36 |
| PVVSMDLDPQIITDEEEGLIWVVG | 2.93 |
| PVVSMDLDPQQITDEEEGLIWVVG | 4.39 |
| PVVSMDLDPQMITDEEEGLIWVVG | 4.27 |
| PVVSMDLDPQTITDEEEGLIWVVG | 3.77 |
| PVVSMDLDPQKITDEEEGLIWVVG | 3.68 |
| PVVSMDLDPQYITDEEEGLIWVVG | 2.67 |
| PVVSMDLDPQPITDEEEGLIWLVG | 3.94 |
| PVVSMDLDPQPITDEEEGLIWSVG | 4.7 |
| PVVSMDLDPQPITDEEEGLIWWVG | 3.79 |
| PVVSMDLDPQPITDEEEGLIWQVG | 4.63 |
| PVVSMDLDPQPITDEEEGLIWKVG | 4.57 |
| PVVSMDLDPQPITDEEEGLIWYVG | 5.12 |
| PVVSMDLDPQPITDEEEGLIWRVG | 3.89 |
| PVVSMDLDPQPITDEEEGLIWHVG | 4.85 |
| PVVSMDLDPQPITDEEEGLIWGVG | 4.92 |
| PVVSMDLDPQPITDEEEGLIWFVG | 2.54 |
| PVVSMDLDPQPITDEEEGLIWTVG | 4.26 |
| PVVSMDLDPQPITDEEEGLIWEVG | 5.47 |
| PVVSMDLDPQPITDEEEGLIWCVG | 3.9 |
| PVVSMDLDPQPITDEEEGLIWDVG | 5.28 |
| PVVSMDLDPQPITDEEEGLIWNVG | 4.37 |
